Experimental data: US20190041402A1 (GOVERNING COUNCIL OF THE UNIVERSITY OF TORONTO, published 2019)
Residue numbers refer to the chain shown, from its start.

T1: extracellular domain (ECD) of human αKlotho, amino acids E34-S981 with C-terminal 6-His tag (R&D Systems … (human, UniProt Q9UEF7 34-981))
T1 construct: range 34-981; also called αKlotho (aa34-981); target antigen
T1 sequence: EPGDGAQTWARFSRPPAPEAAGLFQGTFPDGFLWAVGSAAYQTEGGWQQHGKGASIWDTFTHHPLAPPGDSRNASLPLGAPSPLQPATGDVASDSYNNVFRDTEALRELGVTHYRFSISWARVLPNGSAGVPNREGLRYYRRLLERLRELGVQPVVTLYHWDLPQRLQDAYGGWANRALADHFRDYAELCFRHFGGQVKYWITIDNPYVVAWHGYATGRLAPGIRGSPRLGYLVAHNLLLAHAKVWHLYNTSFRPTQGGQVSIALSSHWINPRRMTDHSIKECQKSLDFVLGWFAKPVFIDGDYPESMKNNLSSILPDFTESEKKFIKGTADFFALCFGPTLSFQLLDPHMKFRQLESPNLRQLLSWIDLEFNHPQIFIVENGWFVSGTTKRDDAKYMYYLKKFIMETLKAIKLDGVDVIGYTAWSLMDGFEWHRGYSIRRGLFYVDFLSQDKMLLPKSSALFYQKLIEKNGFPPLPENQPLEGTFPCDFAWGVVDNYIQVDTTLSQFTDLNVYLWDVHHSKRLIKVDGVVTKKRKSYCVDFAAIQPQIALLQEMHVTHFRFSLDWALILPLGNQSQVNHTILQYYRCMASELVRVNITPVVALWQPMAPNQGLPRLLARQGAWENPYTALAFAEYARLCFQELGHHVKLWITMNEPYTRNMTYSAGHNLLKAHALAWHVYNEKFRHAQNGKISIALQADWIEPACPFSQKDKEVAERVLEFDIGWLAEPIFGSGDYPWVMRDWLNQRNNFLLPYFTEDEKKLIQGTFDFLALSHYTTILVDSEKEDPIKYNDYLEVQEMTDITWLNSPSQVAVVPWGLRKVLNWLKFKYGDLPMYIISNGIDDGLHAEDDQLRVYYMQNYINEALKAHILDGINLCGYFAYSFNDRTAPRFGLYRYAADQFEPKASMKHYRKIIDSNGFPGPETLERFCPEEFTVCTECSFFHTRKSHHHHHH

B1: anti-αKlotho Fab clone 4818 (Fab, V domains shown)
VH: EVQLVESGGGLVQPGGSLRLSCAASGFNISYSSIHWVRQAPGKGLEWVASISPYSGYTYYADSVKGRFTISADTSKNTAYLQMNSLRAEDTAVYYCARSGHSVYWWWSHFGMDYWGQGTLVTVSS
VL: DIQMTQSPSSLSASVGDRVTITCRASQSVSSAVAWYQQKPGKAPKLLIYSASSLYSGVPSRFSGSRSGTDFTLTISSLQPEDFATYYCQQPYSPITFGQGTKVEIKR
notes: Fab (also as Fab-phage); FLAG tag on light chain; also called sb187
B2: anti-αKlotho Fab clone 4812 (Fab, V domains shown)
VH: EVQLVESGGGLVQPGGSLRLSCAASGFNLSSYSMHWVRQAPGKGLEWVASISSYSGYTSYADSVKGRFTISADTSKNTAYLQMNSLRAEDTAVYYCARSYSWWWSVSYAMDYWGQGTLVTVSS
VL: DIQMTQSPSSLSASVGDRVTITCRASQSVSSAVAWYQQKPGKAPKLLIYSASSLYSGVPSRFSGSRSGTDFTLTISSLQPEDFATYYCQQGYWLFTFGQGTKVEIK
notes: Fab (also as Fab-phage); FLAG tag on light chain; also called sb181
B3: anti-αKlotho Fab clone 4809 (Fab, V domains shown)
VH: EVQLVESGGGLVQPGGSLRLSCAASGFNIYSYYIHWVRQAPGKGLEWVASIYSYYGSTSYADSVKGRFTISADTSKNTAYLQMNSLRAEDTAVYYCARSGPWAWYGLDYWGQGTLVTVSS
VL: DIQMTQSPSSLSASVGDRVTITCRASQSVSSAVAWYQQKPGKAPKLLIYSASSLYSGVPSRFSGSRSGTDFTLTISSLQPEDFATYYCQQSGWAYHPITFGQGTKVEIKR
notes: Fab (also as Fab-phage); FLAG tag on light chain; also called sb178
B4: anti-αKlotho Fab clone 4813 (Fab, V domains shown)
VH: EVQLVESGGGLVQPGGSLRLSCAASGFNLYSSSIHWVRQAPGKGLEWVASISPYSGYTYYADSVKGRFTISADTSKNTAYLQMNSLRAEDTAVYYCARYYSGWYSPAWWYGIDYWGQGTLVTVSS
VL: B3 VL with S91A, G92A, A94G, Y95G, H96A
notes: Fab (also as Fab-phage); FLAG tag on light chain; also called sb182
B5: anti-αKlotho Fab clone 4820 (Fab, V domains shown)
VH: EVQLVESGGGLVQPGGSLRLSCAASGFNISSYYMHWVRQAPGKGLEWVASIYSSYSSTYYADSVKGRFTISADTSKNTAYLQMNSLRAEDTAVYYCARGAWAMDYWGQGTLVTVSS
VL: B3 VL with G92P, A94G, Y95A, H96Y, P97L
notes: Fab (also as Fab-phage); FLAG tag on light chain; also called sb189
B6: anti-αKlotho Fab clone 4826 (Fab, V domains shown)
VH: EVQLVESGGGLVQPGGSLRLSCAASGFNISSYYMHWVRQAPGKGLEWVASISSSYGYTYYADSVKGRFTISADTSKNTAYLQMNSLRAEDTAVYYCARGYPASSYYYPSSALDYWGQGTLVTVSS
VL: B3 VL with S91A, W93F, A94F, Y95S, H96Y
notes: Fab (also as Fab-phage); FLAG tag on light chain; also called sb195
B7: anti-αKlotho Fab clone 4816 (Fab, V domains shown)
VH: EVQLVESGGGLVQPGGSLRLSCAASGFNFSSSSIHWVRQAPGKGLEWVASISSSYGYTYYADSVKGRFTISADTSKNTAYLQMNSLRAEDTAVYYCARGWYAAYSVYWFGGHASYGLDYWGQGTLVTVSS
VL: DIQMTQSPSSLSASVGDRVTITCRASQSVSSAVAWYQQKPGKAPKLLIYSASSLYSGVPSRFSGSRSGTDFTLTISSLQPEDFATYYCQQSSYSLITFGQGTKVEIKR
notes: Fab (also as Fab-phage); FLAG tag on light chain; also called sb185
B8: anti-αKlotho Fab clone 4817 (Fab, V domains shown)
VH: EVQLVESGGGLVQPGGSLRLSCAASGFNFSSSSIHWVRQAPGKGLEWVASISSSYGYTYYADSVKGRFTISADTSKNTAYLQMNSLRAEDTAVYYCARGYPSSGAAWFWFSHPGSAMDYWGQGTLVTVSS
VL: B7 VL
notes: Fab (also as Fab-phage); FLAG tag on light chain; also called sb186
B9: anti-αKlotho Fab clone 4823 (Fab, V domains shown)
VH: EVQLVESGGGLVQPGGSLRLSCAASGFNFSSSSIHWVRQAPGKGLEWVAYIYSSYGYTYYADSVKGRFTISADTSKNTAYLQMNSLRAEDTAVYYCARAAHYGYYVHSGLDYWGQGTLVTVSS
VL: B7 VL
notes: Fab (also as Fab-phage); FLAG tag on light chain; also called sb192
B10: anti-αKlotho Fab clone 4821 (Fab, V domains shown)
VH: EVQLVESGGGLVQPGGSLRLSCAASGFNLYYSYMHWVRQAPGKGLEWVASISPYSGSTYYADSVKGRFTISADTSKNTAYLQMNSLRAEDTAVYYCARSGFSSWWWVVSYAFDYWGQGTLVTVSS
VL: B7 VL
notes: Fab (also as Fab-phage); FLAG tag on light chain; also called sb190
B11: anti-αKlotho Fab clone 4828 (Fab, V domains shown)
VH: EVQLVESGGGLVQPGGSLRLSCAASGFNFSSSSIHWVRQAPGKGLEWVASISSSYGYTYYADSVKGRFTISADTSKNTAYLQMNSLRAEDTAVYYCARYVVGGWWYHYGMDYWGQGTLVTVSS
VL: B7 VL
notes: Fab (also as Fab-phage); FLAG tag on light chain; also called sb197
B12: anti-αKlotho Fab clone 4827 (Fab, V domains shown)
VH: EVQLVESGGGLVQPGGSLRLSCAASGFNFSSSSIHWVRQAPGKGLEWVAYISSSSGSTSYADSVKGRFTISADTSKNTAYLQMNSLRAEDTAVYYCARAYHSYFYGSYWSYGWAGALDYWGQGTLVTVSS
VL: B7 VL
notes: Fab (also as Fab-phage); FLAG tag on light chain; also called sb196
B13: anti-αKlotho Fab clone 4815 (Fab, V domains shown)
VH: EVQLVESGGGLVQPGGSLRLSCAASGFNFSSSSIHWVRQAPGKGLEWVASISSSYGYTYYADSVKGRFTISADTSKNTAYLQMNSLRAEDTAVYYCARGFSSSAHWYWSWYGPGGGFDYWGQGTLVTVSS
VL: B7 VL
notes: Fab (also as Fab-phage); FLAG tag on light chain; also called sb184
B14: anti-αKlotho Fab clone 4806 (Fab, V domains shown)
VH: EVQLVESGGGLVQPGGSLRLSCAASGFNISSSSIHWVRQAPGKGLEWVAYISSSYSSTSYADSVKGRFTISADTSKNTAYLQMNSLRAEDTAVYYCARSSGGGYYHWWVVPYAMDYWGQGTLVTVSS
VL: B7 VL
notes: Fab (also as Fab-phage); FLAG tag on light chain; also called sb175
B15: anti-αKlotho Fab clone 4810 (Fab, V domains shown)
VH: EVQLVESGGGLVQPGGSLRLSCAASGFNLSSSSIHWVRQAPGKGLEWVAYISPSYGSTSYADSVKGRFTISADTSKNTAYLQMNSLRAEDTAVYYCARSGYYSGAYWHWWVVPYAMDYWGQGTLVTVSS
VL: B7 VL
notes: Fab (also as Fab-phage); FLAG tag on light chain; also called sb179
B16: anti-αKlotho Fab clone 4834 (Fab, V domains shown)
VH: EVQLVESGGGLVQPGGSLRLSCAASGFNFSSSSIHWVRQAPGKGLEWVASISSSYGYTYYADSVKGRFTISADTSKNTAYLQMNSLRAEDTAVYYCARAVSFYYWAWYGPGFAMDYWGQGTLVTVSS
VL: B7 VL
notes: Fab (also as Fab-phage); FLAG tag on light chain; also called sb203

target: T1, extracellular domain (ECD) of human …; test: SPR, Fab captured by anti-H+L antibody, αKlotho injected
Procedure: (§1) Affinity estimates for each of the antibodies were determined by surface plasmon resonance (SPR). Fabs were immobilized using an anti-H+L antibody and serial dilutions of αKlotho were injected.

First: B1
Second: B2
The Kd of the first is 2.4-fold higher: 2.1 nM for the first, 0.885 nM for the second.

First: B3
Second: B4
The Kd of the first is 6.2-fold lower: 0.845 nM for the first, 5.2 nM for the second. The first binds more tightly here.

B5 and B6 are within 1.5-fold of each other in Kd: 2.7 nM for the first, 3.3 nM for the second.

B7 and B8 are within 1.5-fold of each other in Kd: 3.7 nM for the first, 4.1 nM for the second.

Going from B9 to B10, the Kd rises from 1.6 nM to 5.1 nM (3.2-fold).

B11 was tested, and the Kd was 4.9 nM.

target: T2, bovine serum albumin (bovine, UniProt P02769 25-607); test: Fab ELISA, purified Fab 5 ug/ml on immobilised BSA, anti-Flag-HRP, A450
T2 construct: also called BSA
T2 sequence (P02769 25-607 limits assumed): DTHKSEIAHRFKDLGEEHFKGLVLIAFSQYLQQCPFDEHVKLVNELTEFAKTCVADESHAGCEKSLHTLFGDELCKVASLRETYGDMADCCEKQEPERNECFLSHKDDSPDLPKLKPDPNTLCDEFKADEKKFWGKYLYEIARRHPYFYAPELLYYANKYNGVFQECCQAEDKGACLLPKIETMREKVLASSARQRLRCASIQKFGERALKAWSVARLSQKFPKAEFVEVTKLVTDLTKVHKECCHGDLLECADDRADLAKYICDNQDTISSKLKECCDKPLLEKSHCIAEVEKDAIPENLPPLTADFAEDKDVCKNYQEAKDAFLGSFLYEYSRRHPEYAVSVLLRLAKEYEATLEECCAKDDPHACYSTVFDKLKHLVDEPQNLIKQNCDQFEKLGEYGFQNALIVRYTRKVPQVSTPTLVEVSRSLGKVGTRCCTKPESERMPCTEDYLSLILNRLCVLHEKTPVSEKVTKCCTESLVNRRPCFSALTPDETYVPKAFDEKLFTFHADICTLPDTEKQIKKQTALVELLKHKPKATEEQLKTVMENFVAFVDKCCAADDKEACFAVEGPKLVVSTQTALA
Procedure: FIG. 10 is a graph showing absorbance values of Fab ELISAs with additional αKlotho antibodies. Purified Fabs [5 ug/ml] were incubated with immobilized αKlotho (1 ug/ml) or bovine serum albumin (BSA), as a negative control. After washing off unbound Fab, bound Fab were detected using an HRP-conjugated anti-Flag anti-body (Fabs have Flag-tag on the light chain). Colorimetric HRP reagents allow for absorbance readings at 450 nm.

B3: no binding (tested: 5 ug/ml).
B5: no binding (tested: 5 ug/ml).
B12: no binding (tested: 5 ug/ml).
B13: no binding (tested: 5 ug/ml).
B9: no binding (tested: 5 ug/ml).
B14: no binding (tested: 5 ug/ml).
B15: no binding (tested: 5 ug/ml).
B16: no binding (tested: 5 ug/ml).
B11: no binding (tested: 5 ug/ml).

target: T1, extracellular domain (ECD) of human …; test: SPR, Fab captured by anti-H+L IgG, αKlotho injected at 50 to 6.25 ug/ml, Langmuir fit [continued]
Procedure: as §1

First: B1
Second: B2
The Kd of the first is 2.7-fold higher: 1.05 nM for the first, 0.387 nM for the second.

Compared with B3, B4 is 6.1-fold higher in Kd: 0.46 nM for the first, 2.8 nM for the second.

B5 and B6 are within 1.5-fold of each other in Kd: 1.48 nM for the first, 2.03 nM for the second.

B7 and B8 are within 1.5-fold of each other in Kd: 2.06 nM for the first, 1.93 nM for the second.

Going from B9 to B10, the Kd rises from 0.991 nM to 2.85 nM (2.9-fold).

Work on B11 yielded a Kd of 2.48 nM.

Compared with B1, B2 is 2.8-fold lower in koff: 0.000539 s⁻¹ for the first, 0.000191 s⁻¹ for the second.

First: B3
Second: B4
The koff of the first is 6.4-fold lower: 0.000258 s⁻¹ for the first, 0.00164 s⁻¹ for the second.

Compared with B5, B6 is 1.9-fold higher in koff: 0.00116 s⁻¹ for the first, 0.00218 s⁻¹ for the second.

B7 and B8 are within 1.5-fold of each other in koff: 0.00183 s⁻¹ for the first, 0.00269 s⁻¹ for the second.

Compared with B9, B10 is 3.7-fold higher in koff: 0.000744 s⁻¹ for the first, 0.00277 s⁻¹ for the second.

Binder B11 has a koff of 0.000782 s⁻¹.

B1 and B2 are within 1.5-fold of each other in kon: 512000 M⁻¹ s⁻¹ for the first, 493000 M⁻¹ s⁻¹ for the second.

B3 and B4 are within 1.5-fold of each other in kon: 560000 M⁻¹ s⁻¹ for the first, 588000 M⁻¹ s⁻¹ for the second.

B5 and B6 are within 1.5-fold of each other in kon: 780000 M⁻¹ s⁻¹ for the first, 1.07e+06 M⁻¹ s⁻¹ for the second.

First: B7
Second: B8
The kon of the first is 1.6-fold lower: 888000 M⁻¹ s⁻¹ for the first, 1.39e+06 M⁻¹ s⁻¹ for the second.

B9 and B10 are within 1.5-fold of each other in kon: 750000 M⁻¹ s⁻¹ for the first, 973000 M⁻¹ s⁻¹ for the second.

B11 was tested, and the kon was 315000 M⁻¹ s⁻¹.
